# According to patent US11419948B2, “Functionalized microgels with fibrin binding elements” (Georgia Tech Research Corporation, priority 2013, dated 2022):
# Columns and labels:
# [1] = target: T1, fibrin clot polymerization (Homo sapiens, UniProt P02671+P02675+P02679); assay: Turbidity assay of fibrin clot polymerization; assay type: biochemical
# T1 sequence (P02671 36-866 limits assumed): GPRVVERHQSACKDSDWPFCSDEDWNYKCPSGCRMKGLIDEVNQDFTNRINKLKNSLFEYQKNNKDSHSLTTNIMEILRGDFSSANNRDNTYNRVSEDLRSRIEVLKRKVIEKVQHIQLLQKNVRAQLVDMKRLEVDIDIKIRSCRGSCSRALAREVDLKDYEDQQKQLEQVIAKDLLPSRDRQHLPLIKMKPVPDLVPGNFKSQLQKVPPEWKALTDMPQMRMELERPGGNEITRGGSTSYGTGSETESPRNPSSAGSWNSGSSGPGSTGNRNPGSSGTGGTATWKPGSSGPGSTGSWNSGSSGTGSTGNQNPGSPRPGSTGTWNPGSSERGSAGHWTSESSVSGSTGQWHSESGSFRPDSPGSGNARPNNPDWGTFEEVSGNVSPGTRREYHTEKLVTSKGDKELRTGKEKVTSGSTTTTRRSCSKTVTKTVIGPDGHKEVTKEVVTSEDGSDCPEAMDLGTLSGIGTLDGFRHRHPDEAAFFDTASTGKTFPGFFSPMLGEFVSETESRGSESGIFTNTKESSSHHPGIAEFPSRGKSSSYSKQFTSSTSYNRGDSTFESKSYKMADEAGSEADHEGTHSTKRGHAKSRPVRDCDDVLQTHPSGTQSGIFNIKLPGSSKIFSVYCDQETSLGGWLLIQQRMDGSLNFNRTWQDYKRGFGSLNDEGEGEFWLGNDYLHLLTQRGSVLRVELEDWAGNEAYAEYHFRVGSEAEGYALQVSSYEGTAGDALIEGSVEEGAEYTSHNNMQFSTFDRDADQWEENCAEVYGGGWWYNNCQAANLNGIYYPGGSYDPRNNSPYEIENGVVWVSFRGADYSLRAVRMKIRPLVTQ
# T1 sequence (P02675 45-491 limits assumed): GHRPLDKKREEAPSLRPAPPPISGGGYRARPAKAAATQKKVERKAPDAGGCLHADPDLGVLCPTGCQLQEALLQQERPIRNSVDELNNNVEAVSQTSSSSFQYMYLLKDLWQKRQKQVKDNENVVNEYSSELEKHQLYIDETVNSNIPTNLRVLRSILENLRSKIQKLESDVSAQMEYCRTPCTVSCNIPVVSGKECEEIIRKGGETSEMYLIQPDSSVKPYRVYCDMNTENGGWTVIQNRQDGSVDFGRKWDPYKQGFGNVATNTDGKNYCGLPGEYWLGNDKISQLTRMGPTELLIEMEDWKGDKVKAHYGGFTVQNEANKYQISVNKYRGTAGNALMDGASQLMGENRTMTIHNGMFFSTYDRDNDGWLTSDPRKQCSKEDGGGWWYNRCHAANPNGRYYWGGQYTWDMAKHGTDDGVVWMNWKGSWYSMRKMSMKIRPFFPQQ
# T1 sequence (P02679 27-453): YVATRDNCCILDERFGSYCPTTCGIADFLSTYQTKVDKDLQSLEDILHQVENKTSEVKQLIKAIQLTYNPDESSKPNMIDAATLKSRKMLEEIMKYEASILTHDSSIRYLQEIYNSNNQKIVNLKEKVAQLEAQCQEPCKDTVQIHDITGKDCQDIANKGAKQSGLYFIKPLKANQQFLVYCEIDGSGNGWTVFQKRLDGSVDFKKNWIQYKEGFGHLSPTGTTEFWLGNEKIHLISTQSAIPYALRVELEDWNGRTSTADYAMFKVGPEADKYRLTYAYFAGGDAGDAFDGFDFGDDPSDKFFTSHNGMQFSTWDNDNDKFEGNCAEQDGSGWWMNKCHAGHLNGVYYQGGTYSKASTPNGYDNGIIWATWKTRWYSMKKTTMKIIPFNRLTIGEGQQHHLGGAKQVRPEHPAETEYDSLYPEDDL
# Description: H6 interference with fibrin clot polymerization was determined through turbidity and clottability assays. The turbidity assay involved polymerizing physiological fibrin clots (2 mg/mL) in wells of a 96-well plate while taking absorbance measurements at 350 nm every 30 seconds. An increase in absorbance correlates to an increase in clot “cloudiness” which, in turn, indicates gelation. Turbidity of standard fibrin clots was compared to that of clots exposed to varying molar concentrations ranging from 1:1 to 1:1000 molar ratios of nanobody to fibrinogen.
# [2] = target: T2, fibrin D-Dimers (Homo sapiens, UniProt P02671+P02675+P02679, DEL433-453); assay: ELISA against adsorbed fibrin D-Dimers; assay type: binding; details: D-Dimer dilutions
# T2 construct: ELISAs against plates coated with adsorbed fibrin D-Dimers or E Regions
# T2 sequence (P02671 130-216 limits assumed): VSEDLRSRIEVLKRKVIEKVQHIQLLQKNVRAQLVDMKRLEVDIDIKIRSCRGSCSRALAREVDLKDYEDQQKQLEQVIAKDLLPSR
# T2 sequence (P02675 164-491 limits assumed): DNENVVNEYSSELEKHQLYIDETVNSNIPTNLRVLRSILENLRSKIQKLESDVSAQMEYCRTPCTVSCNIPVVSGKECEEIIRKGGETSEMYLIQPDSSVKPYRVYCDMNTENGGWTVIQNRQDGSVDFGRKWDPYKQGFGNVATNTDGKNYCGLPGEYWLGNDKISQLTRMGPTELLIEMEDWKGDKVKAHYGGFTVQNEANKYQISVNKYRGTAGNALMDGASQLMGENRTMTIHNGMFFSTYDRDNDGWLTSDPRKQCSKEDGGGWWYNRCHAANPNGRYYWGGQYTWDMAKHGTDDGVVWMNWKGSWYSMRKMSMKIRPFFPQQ
# T2 sequence (P02679 114-432 limits assumed): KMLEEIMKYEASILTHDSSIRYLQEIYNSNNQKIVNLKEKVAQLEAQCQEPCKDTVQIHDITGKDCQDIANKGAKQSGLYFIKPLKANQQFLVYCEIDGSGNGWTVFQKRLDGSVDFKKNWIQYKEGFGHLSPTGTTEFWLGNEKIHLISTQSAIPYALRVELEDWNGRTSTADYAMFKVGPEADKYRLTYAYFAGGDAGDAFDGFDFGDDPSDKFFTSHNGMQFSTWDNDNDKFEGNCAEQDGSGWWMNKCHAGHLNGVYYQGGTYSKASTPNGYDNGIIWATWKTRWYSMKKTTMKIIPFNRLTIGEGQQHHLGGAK
# Description: This was determined through ELISAs against plates coated with adsorbed fibrin D-Dimers or E Regions.
# ELISA set-up and analysis was identical to that performed for the plasma-binding ELISA, the main exception being a substitution of human plasma dilutions for D-Dimer or E Region dilutions adsorbed to the 96-well plates. Both D-Dimer and […]
molecule,measurement,setting,value
"H6: fibrin-specific human sdFv clone from phage biopanning, SEQ ID NO: 1 (protein) VHH: QVQLLESGGGLVQPGGSLRLSCAASGDRFTHNDMGWVRQAPGKGLEWVSTIPTTDGSTYYADSVKGRFTISRDNSKSTLYLQMNSLRAEDTAVYYCATGYMWKAPAYVKYWGQGTLVTVSSAAAEQKLISEEDLNSAAHYTDIG",turbidity versus fibrin controls,[1]; all other molar ratios,indistinguishable from physiological fibrin controls
same,turbidity versus fibrin controls,"[1]; molar ratio to fibrinogen 1:1, differences not significant",notable difference in turbidity readings
same,binding to D-Dimer,[2],negligible binding
